This note sets out measurements from patent CN112480260A (FUZHOU MAIXIN BIOTECHNOLOGY DEV CO LTD, dated 2021).

The assay has as its target 重组PSMA蛋白片段 (human PSMA residues 307-750 with β2M and His tag, expressed in E. coli) (human, UniProt Q04609 307-750). The assay is described as follows: indirect ELISA, PSMA protein coated at 100 μg/ml, antibody titrated from 2000 to 0.625 ng/mL; affinity constant from the antibody concentration at half of the plateau OD. On the technique in general: An ELISA detects its analyte on a solid surface through an enzyme-linked reagent.

重组PSMA蛋白片段 (human PSMA residues 307-750 with β2M and His tag, expressed in E. coli), sequence (Q04609 307-750): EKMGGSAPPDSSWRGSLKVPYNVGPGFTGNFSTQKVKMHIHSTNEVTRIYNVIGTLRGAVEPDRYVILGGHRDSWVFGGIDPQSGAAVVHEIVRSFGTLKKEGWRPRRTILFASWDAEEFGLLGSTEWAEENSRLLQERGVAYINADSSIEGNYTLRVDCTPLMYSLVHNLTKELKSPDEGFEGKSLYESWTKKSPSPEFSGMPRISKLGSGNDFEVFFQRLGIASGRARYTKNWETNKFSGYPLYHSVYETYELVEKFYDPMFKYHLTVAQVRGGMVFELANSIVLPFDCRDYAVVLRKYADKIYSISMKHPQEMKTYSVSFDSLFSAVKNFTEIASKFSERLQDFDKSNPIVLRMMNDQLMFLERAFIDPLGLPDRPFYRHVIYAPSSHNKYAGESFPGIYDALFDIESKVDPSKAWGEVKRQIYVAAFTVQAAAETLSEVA

B1: 抗PSMA蛋白单克隆抗体(11D1E5E10) (antibody, V domains shown)
VH: QVQLQQSGPELARPGASVKMSCKASGYTFTSYTIHWVKQRPGQGLEWIGYISPSSGYTNYNQNFKDQATLTADISSSTAYMQLSSLTSEDSAVYYCARSGYRYDWYFDVWGAGTTVTVSS
VL: DIQMTQSPSSLSASLGGKVTITCKASQDINKYIAWYQHKPGKGPRLLIHYTSTLQPGIPSRFSGSGSGRDYSFSISNLEPEDIATYYCLQYDNLWTFGGGTKLEIK
notes: also called CGMCC NO.19683; PSMA单克隆抗体
On to B1, for which the Ka is 4.96e+09 M⁻¹.
